# From the DeepSol protein solubility set
# Assay: soluble on expression in E. coli; label from the status in PepcDB or PDB records
row,Sequence,soluble on expression in E. coli
1,MSLNTIDNKEHIIHYEHILKSTHTVNEVNTVSEVDAMKYSLIKLSAMNSYSDCQQAIEDIEADPENYTTETRAAARIGGHCELLKGAKEKIKALEKKADSFIPSDDSEEVNTVSETSQRTYGYGRVSTDEQTTSQQLTAIREAGHKVSDNRFIVDEGVSGGVCAMERPAFRNLVENKLEKGDTLVIAKLDRLGRDNIDVQQVVQMLTDKGIKLFILDLPVADLSSPEGKLMLQMFATFAEFEKNRISERIRDKLKQLKQEGKALGRPTKNVYDDVQELKAQGISQRTIADKLNVSLSTVRRNWVDTKRSLEVVTESGEGHHHHHH,not soluble
2,MAHDLQKMMDGELVRLQLEIKKEQERRLAEKMIPVFGVWQSPINQYEFADPEQAISCAAGLLDKVLREVKDDLSKEGGLQGWNGNLLRIYVQHVNESDFAVLQPYLKDK,not soluble
3,GSKVVKFSYMWTINNFSFCREEMGEVIKSSTFSSGANDKLKWCLRVNPKGLDEESKDYLSLYLLLVSCPKSEVRAKFKFSILNAKGEETKAMESQRAYRFVQGKDWGFKKFIRRGFLLDEANGLLPDDKLTLFCEVSVVQDSVNISGQNTMNMVKVPECRLADELGGLWENSRFTDCCLCVAGQEFQAHKAILAARSPVFSAMFEHEMEESKKNRVEINDVEPEVFKEMMCFIYTGKAPNLDKMADDLLAAADKYALERLKVMCEDALCSNLSVENAAEILILADLHSADQLKTQAVDFINYHATDVLETSG,soluble
4,MGSDKIHHHHHHLYSFTIASDTIELVKSLHYSILVLNMEAEEMFSKKQDPFAVKLSEIAGHLQRTSQFFVDFKINGIADVKEFAHKVKDFETAGDDLMHQLIIDLNNAFITPIDREDLLALANSLDDVLDGFEECSAIFEIYNIVQADEHMIRFVDEIHIAVNELALSMDLLVARKLQPMREHVIKVKEQETICDNLRRKSIKALFATETDPIKIIQYKEIYESLESIADYCQDAANVIETIIMKNA,not soluble
5,GPGSMKVFHFHGTYRALGVRPKDFSLRAETVDGWRTPVLTSDWERHCDVEGIVTPALSSAGNAASALEPKGPVQVVVATFSLPPGSYATSVLREFCIRTTENGQGNDLETEDEYSSCADTMSHDGCQERRNGRRHHRPASRCIVTRSMRICSLCRSLSPLSLLLLTYVM,soluble
6,MSLPANKLVFVGGMGAGKTTAVRAISDVEPVSTEMPLSQDAYGDKTYTTVALDYSSIELEDGELLHVYGVPGQKYLDFMWPLVCDGALGVIVLTSARDTQMRDTTLELLREFSRITPEASLAVGVTMTDEVQEFLLPPFREALVAEGFRIPVMRVDARSATQITFLVKTLLSYRYTSAPVLEHHHHHH,soluble
7,MSLKNIVFCGLSSRAFSMFIKPLMERFSTHYEITGLLDADPKRFAVCKKKFPELAHVPEFSEDAFDEMMRVSKPDIVIVAGRDDTHVAYIVKSLQWNTDVITEKPMVTTVQDANRVLEAEAKSEGKVTVAFNYRYSPFHRKIKEMILDGKIGRVTSVDLNWYIDTYHGASYFKRWNRSRQFSGGLSVHKSTHHFDLVNWWLGQNPEEVFAYGALNYYGPDSEWNPLPEEDGRFCGTCRVKEKCHYYSRWHPRSSKASIKDDHLEAGDQSSLYTAYRPDACIFDEEIDIEDTYVAAVKYDGGALLSYSIIFSAPYEGYRLTINGTKGRIESNEFHEPSRIPFAFPEQTIEYYPLFESKQTIQVVKNEGGHGGGDPLLLEDLFLGKDPLRRYDILAGAEAGAYSIAVGEGMWRSVAEKKPIGMKELFQMQNEGHHHHHH,soluble
8,AIASETISRVRQLTEKGAKMEGWDDCWKAGLTPWDRGSSLPVLCELCKEDALPKGYALVPGCGRGYDVLTLASESRVAIGLDCSEEAKKQAEQVRKFSVVDNCQLKEIEAEGF,soluble
9,MATGAMSRSNDWTKSLSDAQPVPYWLDDPGRPRPEAALTGTETCDLLVVGGGYSGLWTALIAKERDPGRDVVLIEGREVGWAASGRNGGFCAASLTHGLSNGLTRWPDDIHRLEELGARNLDAIEAAVARHGLDCDFERTGEIDVATEPHQARELEEWYAEIRAQGLAEGVEYLDAEAVREQVDSPTFRAGLWDRRGVAMVNPAKLAWGLKRACLALGVRVHEHTPALTLKPYGAGMAVRTPYGAVRARTVALGTNVFPNLVRRVRPYTVPVYDYALMTEPLSDGQLASVGWQNRQGLGDSANQFHYFRLSRDNRILWGGYDAVYPYGGRVRAEYDHRPETYAKLAGHFFTCFPQLEGVRFTHAWGGAIDTCSRFSAFFGTAHRGRVAYAAGYTGLGVGATRFGAEVMLDLLSGERTERTELEMVRTKPLPFPPEPFAWTGIALTKWSLARADAHGGRRNLWLRTMDRLGLGFDSLEHHHHHH,not soluble
10,MAVTVSVAQATPAPFDMAARFKALYTREWRWRQAEFPGVVERSSQPQCVDHLPKVDLARQNKRTAYWQQVLEELKTIDPVRLSSKDQINYQVYRQQIEVLLDGQRFRSWEMSFNSDTAFWSDLSFSARDRFRTSEDYRCYLGVLADIPRYFNEQIVNLRQGLARGFAQPRVTLEGRDQVIAEVAGAAGEDNLFYIPFKQMPTMMSAGEQARLRAQVLHLIVDQVVPAYRHLLAFMREEYLPKARTVLAAESLPGGVAYYRAKIFEYTTLDLDPEAIYQIGVAEVAKLRQQMDQVIVDSGFKTSPDQQIFSAFLRYLRTDPQFYPKTPEALLKEAAWIAKRVDAKIGLYIGRLPRRRFAIEPVPADVAPYYTSGRGGPGIYFVNTYDLPSRPLYNLTALTLHESSPGHALQMPLAEEAKEVPEFRRYAFISAYGEGWAVYAEYLGQEMGLYDTPYDRFGYLSYQIWRACRLVIDTGIHHKGWTRAQAQAYLRDNTALSEREITTEVDRYISWPGQALSYYLGELKILELRHKAEAALGAKFDIRHFHDAVLGLGSVPLQVLEARIDRFIAE,not soluble
11,MSQEVEETLKRIQSHKGVVGTIVVNNEGIPVKSTLDNTTTVQYAGLMSQLADKARSVVRDLDPSNDMTFLRVRSKKHEIMVAPDKDFILIVIQNPTD,soluble
12,MLVSRNLAKTISNSKNAKNIHTSCRKFAPVPMTYASYSSPELDRNSPLVIVHGLFGQKQNWNSVGKALHKKLEAPVYAVDVRNHGSSPHTETMSYTEMAEDLVLFIDKVKEETKKTRVNLLGHSMGGKIVMRLAIDSKWSDRIEKLIVEDVSPKGYSRRHLEFRELIKTMRNVDLCRTRKEILKDLESAIPDLAMRQFILTNLQPSSENEGQMEWKININTIDSHVDEILGYTLPVGSFRGPTLFLHGANSGYVPDDHKPDIKCLFPQVQFDAIPDSGHWVHAEKPQLFINSVYKFLKP,not soluble
13,MGSDKIHHHHHHMGLMDFRPYFRVTVDGKDISGVLAPRLVSLRVTDGAGVQSDTVEIRLSDTNLFQRISEPRAGAEIEVWLGFPLSLSYMGLFVADTIETGGPPDTVTITGTASVNGETTSGKTALTDQKKRSWPEGTTIGAMVEKIASEHGLIAMVSESLRAEALPHIDQIDESDINLLSRIARDFDAIAKPGNGRLIMTRRGESLTASGQPLPVVRVDKSSVTEWRYRNSLRERVGRVIATTQDLEAGQPVEVEAGQGEPALRLRRRFPDKVTARKTAESELKRLGRAGRSLSITMPGNSDIVAEARLSASGFRSYIDGEWLVSRATHILDSGGYRTAITAEPVE,not soluble
14,MHLELHQINGNDPLGTIIGERNYQLPIPLPYTMKTVKQIHSGIWHTVIRGYDQYNRPQIATFGKNYDGQLGTGDCENRDTPTPIKLPPEMLTFHAIQTGFFHTIATGLDKNGFPIVASCGYNSDGQLGCGDKDNKNTLIPIKLPENMKSVEMVATGVKHTVIVGKDINNKPVVATCGHNGYGQLGTGDEENRLCLTPIGIPEDITSVDYVGAGAYHTVICGRNIKNQPIITLCGCNSDGELGFAPQKIAKKSSLMTNPAMFFPPRQDKSAINNLMKISKFSPCNLL,not soluble
15,MILRIIYTLLNYLSQPVLLLMMWRKTARHTKQTSRLWERYGIYRQLTAPRPQGIVIHAASVGEVIAATPLINAIQTHYPALPITVTTFTQTASERVQAIFANTVSHIYLPFDLPFAVNRFIKFTQPRLFIVIETELWPNLITQTYRQHIPFIIANGRLSARSLKHYQWFNPALQKILNQISMIIAQDQISAERYAQLGFNSQQLTTAGNLKFDLEISEQLRQTIQKTKQTLTLGNRPVWIAGSTHEGEDEIILATHQQLLSEWPDLLLILAPRHPNRFKNVENLLIKSELCYVKRSQQCPLTDHTQVLLADTLGEMMILYGLANIAFVGGSLIKHGGHNPLEPIAFGLPIISGIHTFNFLEIFNKLKAIHGVIEVTNDPADLAQAVNLLLKDPKKYTAIAQAGLSMLKANQGSLQRHLQLLAPYLEKLEHHHHHH,not soluble
16,MAAKVEPFWKRKTLAQLDQDEWESLCDGCGLCCLQKLEDEDDGSVYYTRIACKLLDLQSCRCTNYAERIRFVPDCIQLTPAQADEFQWLPPTCGYRLVAEGKDLPLWHHLVCGDPERVHKERISQSGRMLSETQVAEDDWEDYLIFRAG,not soluble
17,MGHHHHHHSHMLFEEAFVHLKPQVCLPLWISWAEWSEGAKSQEDTEAVFKKALLAVIGADSVTLKNKYLDWAYRSGGYKKARAVFKSLQESRPFSVDFFRKMIQFEKEQESCNMANIREYYERALREFGSADSDLWMDYMKEELNHPLGRPENCGQIYWRAMKMLQGESAEAFVAKHAMHQTGHL,not soluble
18,MNTTEFDGISHAEGLCDKEFIGKAISYLYRYGQIYIGKKIEPYGIGSGQFPFLMRLYREDGINQESLSDYLKIDKGTTARAIQKLVDEGYVFRQRDEKDRRSYRVFLTEKGKKLEPDMKKIASEWGEILFSSFDDRQRREITNSLEIMFENGLKIM,not soluble
19,MFEGFKEVTDKDFYKAVMMNPKPSVVVFTDPNNPANEQIKPILEKYQKLYGDKIDFFYMDVTKNTSFEDFGIFNFPAILYFRDTMELDRHDFIPTEEMVEQAIKRLLRMV,not soluble
20,SLIRGWLAEGERMKETSYYSYVVGELPKGCQYCVRGEKLVLFVTGVCPRNCFYCPLSPWRRKDVAYANERPIRKIEDIIEEAKIQEARGAGVTGGDPLARLNRTVEYIRTLKEEFGKKFHIHLYTTGILADKRALSMLYDAGLDEIRFHPDLFEPSSKFLNREIENLKNAFDFDWDVGGEVPAVPGFGDRIKWFAEILDKFGGKFLNINELEYSETNLSNILNRGFKLAGENSFAIKGSLELGLEILEWGEKNTSLYYHLCTAKLKDAVQLRNRLRRMAKNVAKPYMEITEDGTLRFGIAEYEDLEELYKFLVEEAEVPKEWLYINWEKKRIEMPVEVAEELAEAIEGDVKFYIVEEYPTWDRIEVERIPLNEG,soluble
21,MGSDKIHHHHHHMDFYTIQFDDLANFESAGIFVNNKKWKHSHRILSSFEIIVMIEGVLPIQVSNTQYRVKPNKLLIIPPSAEHFGFEFTTSDIKFIWIHFNCSKFKINDEKSLFLSNIENSSIILPNYSNKLDVQRIILMSNHLLDITQENVNSIYLNLFLNSTLHEINYQTQKILKERQLSNLYLQPVREFIRINCFEDIDLGSIATHFNYNKSYLSRKYKKVMGIGIKQQINKFRISRAEYLLSNTSLTVQEISSQIGFNDEKYFMRLFRKNTNSTPSEYRKLYSQRHFNKE,not soluble
22,MTNNDPYHTLINEICALSLISTPERFYESANFKISEVDFTLQYQDRDEGRAVLIYGDMGALPTRNRDAALLALMDINFHMFSGVHSPVFSWNAQTSRVLLMGSVSLERASAEGVLLLMKSFADLANEWREHGFIGQVKTAGAPAEQPVATAAKRESLSASGKFQ,not soluble
23,MNNGEGEVMDLRDIDLNLLVVFNQLLLDRSVSTAGEKLGLTQPAVSNSLKRLRTALNDDLFLRTSKGMEPTPYALHLAEPVIYALNTLQTALTTRDSFDPFASTRTFNLAMTDIGEMYFMPPLMEALAQRAPHIQISTLRPNAGNLSEDMESGAVDLALGLLPELQTGFFQRRLFRHRYVCMFRKDHPSAKSPMSLKQFSELEHVGVVALNTGHGEVDGLLERAGIKRRMRLVVPHFIAIGPILHSTDLIATVPERFAVRCEVPFGLTTSPHPAKLPDIAINLFWHAKYNRDPGNMWLRQLFVELFSEAHHHHHH,soluble
